Reference: publication PMC6160384, “TDP-43 regulates cancer-associated microRNAs”

The binders below were run against TDP-43 (His-TDP-43 wild type) (UniProt Q13148 1-414) (assay: EMSA; EMSA: LightShift Chemiluminescent RNA EMSA Kit (Thermo), per manufacturer; buffer, salt, pH and temperature not stated). Details: protein: recombinant; tags: His tag; text says C-terminal (pEASY-E2); label: biotin.
Chain of TDP-43 (His-TDP-43 wild type) (Q13148 whole entry): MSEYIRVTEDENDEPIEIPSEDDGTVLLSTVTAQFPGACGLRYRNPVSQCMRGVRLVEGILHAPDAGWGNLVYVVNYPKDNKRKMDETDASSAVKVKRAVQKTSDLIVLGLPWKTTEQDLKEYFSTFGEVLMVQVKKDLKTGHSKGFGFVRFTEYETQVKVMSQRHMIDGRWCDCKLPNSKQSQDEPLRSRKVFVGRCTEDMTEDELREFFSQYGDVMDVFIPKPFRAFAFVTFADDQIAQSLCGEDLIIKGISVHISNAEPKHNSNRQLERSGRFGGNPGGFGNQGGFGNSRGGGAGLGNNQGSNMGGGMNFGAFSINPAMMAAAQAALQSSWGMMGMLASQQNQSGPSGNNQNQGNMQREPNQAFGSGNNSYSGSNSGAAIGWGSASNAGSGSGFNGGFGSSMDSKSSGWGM
AGCUCGGUCUGAGGCCCCUCAGU (ssRNA) [miR-423-3p]: binds.
CACGCUCAUGCACACACCCACA (ssRNA) [miR-574-3p]: no binding.
AUGCACCUGGGCAAGGAUUCUG (ssRNA) [miR-500a-3p]: binds.
